Test results published in PMC2863221 (The Journal of Biological Chemistry, 2010).

Biological target: the molecule itself
Assay: SDS-PAGE and Western blot

B1: HA-tagged rat syndecan-4 AAA mutant (serines 44, 65 and 67 mutated to alanine; no glycosaminoglycan chains) (receptor, UniProt P34901 24-202, looked up)
chain: ESIRETEVIDPQDLLEGRYFAGALPDDEDAGGLEQDSDFELAGAGDLDDTEEPRTFPEVISPLVPLDNHIPENAQPGIRVPSEPKELEENEVIPKRVPSDVGDDDVSNKVSMSSTSQGSNIFERTEVLAALIVGGVVGILFAVFLILLLVYRMKKKDEGSYDLGKKPIYKKAPTNEFYA
stoichiometry N: 2
